Measurements published in paper PMC10980018.

Target: HKU5-20s trimeric ectodomain with 2P stabilizing mutations (merbecovirus HKU5-20s (host Pipistrellus abramus))
Assay: cryo-EM structure

HKU5-20s trimeric ectodomain with 2P stabilizing mutations (domain or fragment)
stoichiometry N: 3
